Data reported in the supplement of paper PMC10126150.
± gives the standard deviation of the averaged measurements.

system: ATP; assay: switch fluorescence ratio, 500 uM ATP over buffer (Cy3 cluster intensity, sum of 5 cycles each) (fold (ratio)); higher = stronger signal-on switching upon ATP binding; sequences stand for … in TCGTCGGCAGCGTCAGATGTGTATAAGAGACAGTTTTTTTTTTTTTTTTTTTTTTTTT…TC; conditions: aptamer strand: ATP DNA aptamer (quencher-CACCTGGGGGAGTATTGCGGAGGAAGG + anchor), 100 nM annealed; ATP concentration: 500 uM
Method in brief: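 Clusters carrying Cy3-labelled switching strands on a modified Illumina MiSeq flow-cell were annealed to 100 nM quencher-labelled ATP aptamer and imaged in selection buffer. They were imaged again after 15 min with 500 uM ATP at 22 °C, over five buffer/ATP cycles with NaOH stripping and re-annealing in between. For each cluster, the fluorescence ratio is the summed Cy3 intensity of the target cycles divided by that of the buffer cycles, averaged per switch-domain sequence. Clusters outside 100-1000 RFU were left out.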
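Further: ATP exposure 15 min at 22 °C before imaging.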

Sequence	switch fluorescence ratio
TGGCTCAGTC	0.997 ± 0.044
TGGCTCCATT	1.01 ± 0.034
TGGCTGCAGA	0.972 ± 0.064
TGGCTGGTAA	0.991 ± 0.021
TGGCTTGGTA	1 ± 0.02
TGGCTTGTTT	0.99 ± 0.058
TGGGAAAGTT	0.988 ± 0.025
TGGGAACTCT	0.994 ± 0.012
TGGGAAGTTG	0.956 ± 0.04
TGGGAATAGG	0.993 ± 0.019
TGGGAATAGT	1 ± 0.049
TGGGAATGTT	1.01 ± 0.011
TGGGAATTAA	0.979 ± 0.04
TGGGAATTGT	1 ± 0.026
TGGGACCCTT	1.06 ± 0.023
TGGGACGACG	0.991 ± 0.022
TGGGACTGTT	0.986 ± 0.028
TGGGAGAGGA	1.02 ± 0.049
TGGGAGAGTT	0.993 ± 0.023
TGGGAGATAT	1 ± 0.028
TGGGAGCATA	1.05 ± 0.022
TGGGAGCCCG	0.9853 ± 0.0034
TGGGAGCGGT	0.995 ± 0.007
TGGGAGGATG	1.01 ± 0.039
TGGGAGGGAA	0.995 ± 0.013

Sequence	switch fluorescence ratio
TGGGAGGGTA	0.982 ± 0.022
TGGGAGGTCG	1.09 ± 0.03
TGGGAGTCGG	1.01 ± 0.035
TGGGAGTGGT	1 ± 0.003
TGGGATACAG	0.982 ± 0.026
TGGGATACGT	1.55 ± 0.79
TGGGATCGTC	0.966 ± 0.042
TGGGATGAGT	1.007 ± 0.0081
TGGGATTGCG	1.04 ± 0.012
TGGGATTGGC	1.01 ± 0.11
TGGGATTTCA	0.979 ± 0.045
TGGGATTTTT	0.985 ± 0.031
TGGGCCGCTT	1.04 ± 0.028
TGGGCCGGTA	1.02 ± 0.031
TGGGCGATAG	1.02 ± 0.027
TGGGCGATAT	1.95 ± 1.1
TGGGCGCGGT	0.975 ± 0.018
TGGGCGGCTT	0.97 ± 0.011
TGGGCGGGAG	0.993 ± 0.039
TGGGCGGGAT	1 ± 0.039
TGGGCTGGCT	1 ± 0.023
TGGGCTTTGG	0.9992 ± 0.009
TGGGCTTTTT	0.982 ± 0.041
TGGGGAACAC	0.995 ± 0.043
TGGGGAACG	0.9595 ± 0.006

Sequence	switch fluorescence ratio
TGGGGAACGC	1.01 ± 0.034
TGGGGAAGAG	1.02 ± 0.027
TGGGGAAGGA	0.99 ± 0.018
TGGGGACAGC	0.949 ± 0.027
TGGGGACAGT	1 ± 0.017
TGGGGACTCC	0.997 ± 0.032
TGGGGACTGG	1.04 ± 0.088
TGGGGACTTA	1.012 ± 0.0089
TGGGGAGAAG	0.994 ± 0.013
TGGGGAGCAT	1.01 ± 0.044
TGGGGAGCTT	0.99 ± 0.023
TGGGGAGGAT	0.974 ± 0.023
TGGGGATTGC	1.02 ± 0.048
TGGGGCAACG	0.979 ± 0.034
TGGGGCCCTT	1.04 ± 0.02
TGGGGCGACG	0.994 ± 0.034
TGGGGCGGGA	1.02 ± 0.08
TGGGGCGGTT	0.979 ± 0.024
TGGGGCGTCG	1 ± 0.037
TGGGGCTAAG	1.01 ± 0.034
TGGGGCTATT	1.02 ± 0.045
TGGGGCTGTG	0.991 ± 0.014
TGGGGGAAAA	0.986 ± 0.01
TGGGGGACTT	0.99 ± 0.039
TGGGGGAGAT	1.04 ± 0.1

Sequence	switch fluorescence ratio
TGGGGGAGCC	1.03 ± 0.041
TGGGGGAGTA	0.952 ± 0.018
TGGGGGCACT	0.982 ± 0.022
TGGGGGCTAC	1 ± 0.01
TGGGGGGAAT	1.03 ± 0.1
TGGGGGGACG	1.03 ± 0.086
TGGGGGGAG	1.0137 ± 0.00093
TGGGGGGAGG	1 ± 0.036
TGGGGGGAGT	1.01 ± 0.024
TGGGGGGATG	0.996 ± 0.011
TGGGGGGGAC	1.04 ± 0.069
TGGGGGGGG	1.01 ± 0.05
TGGGGGGTAG	0.988 ± 0.02
TGGGGGTAGT	0.99 ± 0.022
TGGGGGTCGT	1.02 ± 0.024
TGGGGGTGGT	1 ± 0.028
TGGGGGTTGT	0.987 ± 0.025
TGGGGTAATC	1.03 ± 0.07
TGGGGTAGGA	0.988 ± 0.029
TGGGGTATAC	1.02 ± 0.038
TGGGGTATCT	1 ± 0.019
TGGGGTGACA	1.01 ± 0.054
TGGGGTGAGG	1 ± 0.035
TGGGGTGCCG	1.12 ± 0.039
TGGGGTGGTT	1.03 ± 0.015
